This assay addresses CD47 (mouse (endogenous in AB1 cells)) (UniProt Q61735). Description: proximity ligation; fixed MM (AB1) cells on coverslips, resting (PBS) or treated overnight with 400 nM BoxA or 10 nM CXCL12; primary antibodies to CD47 together with anti-CXCR4, anti-RAGE or anti-TLR4; Duolink probes; confocal imaging, signal per cell quantified.
Chain of UniProt Q61735 (Q61735 19-303): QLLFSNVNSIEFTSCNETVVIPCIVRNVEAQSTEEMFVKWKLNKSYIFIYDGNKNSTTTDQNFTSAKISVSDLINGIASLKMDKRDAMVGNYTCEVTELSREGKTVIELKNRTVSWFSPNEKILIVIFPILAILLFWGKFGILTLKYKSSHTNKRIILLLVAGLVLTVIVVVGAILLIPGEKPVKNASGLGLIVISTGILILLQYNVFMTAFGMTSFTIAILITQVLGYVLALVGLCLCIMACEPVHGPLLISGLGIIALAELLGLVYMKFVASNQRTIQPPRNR

As to “RAGE (from UniProt Q62151 23-402) (receptor)”, the PLA signal, fold lower than that of CD47 and CXCR4 (fold lower than CD47/CXCR4) stood at 100. The substance “TLR4 (from UniProt Q9QUK6 26-835) (receptor)” gave a PLA signal, fold lower than that of CD47 and CXCR4 (fold lower than CD47/CXCR4) of 100.

(Values after paper PMC8185548.)
